Laboratory results from patent US20160031944A1 (PROTAGONIST THERAPEUTICS, published 2016).

Legend:
[1] = molecular target: T1, α4β1 (R&D Systems #5668-A4) (UniProt P13612 34-977; P05556 21-728); assay: α4β1-VCAM competition ELISA
T1 construct: bought; printed as αβ1; detected with mouse anti-human CD49d antibody 9F10; also called αβ1; A4B1
Description: The solution was removed by shaking and then blocked with 250 ul of 1% BSA in 1×PBS per well. The wells were then incubated at room temperature for 1 hr with shaking. Each well was then washed once with wash buffer (50 mM Tris-HCl pH7.6, 100 mM NaCL, 1 mM MnCl₂ or MgCl₂, 0.05% Tween-20). 25 ul of serial dilutions of peptides starting at 200 μM in assay buffer (Assay buffer: 50 mM Tris-HCl pH7.6, 100 mM NaCl, 1 mM MnCl₂ or MgCl₂, 0.05% Tween-20) was added to each well. […] The final peptide and αβ1 concentrations were 100 μM and 60 nM, respectively. The plates were then incubated at 37° C. for 2 hr. The solution was then removed by shaking and each well was washed three times with wash buffer. 50 ul of 9F10 antibody at 4 ug/ml (purified mouse anti-human CD49d, BD Bioscience Cat#555502) was then added to each well, and the plate was incubated at room temperature for 1 hr with shaking. The solution was again removed by shaking, and each well was washed three times with wash buffer. 50 ul of peroxidase-conjugated AffiniPure Goat anti-mouse IgG (Jackson immune research cat #115-035-003) diluted in 1:5000 in assay buffer was added to each well. The plate was incubated at room temperature for 30 min with shaking. Each well was then washed 3 times with wash buffer. […] The reaction was stepped with 2N H₂SO₄ and absorbance was read at 450 nm.

[2] = molecular target: T2, rh integrin α4β7 (R&D Systems #5397-A30) (human, UniProt P13612 34-977; P26010 20-723); assay: α4β7-MAdCAM competition ELISA
T2 construct: bought; coated on a nickel coated plate at 800 ng/well; also called A4B7
T2 sequence (P13612 34-977 limits assumed, chain 1 of 2): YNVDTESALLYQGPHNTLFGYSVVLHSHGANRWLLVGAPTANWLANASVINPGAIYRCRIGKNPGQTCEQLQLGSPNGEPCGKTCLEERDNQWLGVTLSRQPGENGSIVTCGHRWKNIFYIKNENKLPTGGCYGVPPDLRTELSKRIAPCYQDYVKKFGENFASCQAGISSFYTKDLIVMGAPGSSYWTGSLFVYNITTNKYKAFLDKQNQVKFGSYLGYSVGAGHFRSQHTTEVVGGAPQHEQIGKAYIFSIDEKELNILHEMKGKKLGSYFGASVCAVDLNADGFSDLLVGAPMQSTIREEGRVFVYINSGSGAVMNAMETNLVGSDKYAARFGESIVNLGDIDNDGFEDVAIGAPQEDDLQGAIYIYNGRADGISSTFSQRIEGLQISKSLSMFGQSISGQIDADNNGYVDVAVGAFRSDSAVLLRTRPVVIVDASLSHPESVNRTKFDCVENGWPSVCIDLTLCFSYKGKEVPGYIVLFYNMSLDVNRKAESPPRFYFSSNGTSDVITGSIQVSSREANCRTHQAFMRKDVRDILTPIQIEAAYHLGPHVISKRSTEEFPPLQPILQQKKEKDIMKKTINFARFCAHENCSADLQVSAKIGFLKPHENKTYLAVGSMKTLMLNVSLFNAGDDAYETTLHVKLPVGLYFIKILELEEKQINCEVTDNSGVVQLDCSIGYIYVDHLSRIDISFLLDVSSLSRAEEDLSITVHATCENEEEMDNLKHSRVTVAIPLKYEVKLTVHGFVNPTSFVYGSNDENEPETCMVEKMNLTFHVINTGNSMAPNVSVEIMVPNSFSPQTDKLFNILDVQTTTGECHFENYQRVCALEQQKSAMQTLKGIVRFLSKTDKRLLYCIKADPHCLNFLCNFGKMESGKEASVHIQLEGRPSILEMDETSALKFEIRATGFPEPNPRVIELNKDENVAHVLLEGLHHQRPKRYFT
T2 sequence (P26010 20-723 limits assumed, chain 2 of 2): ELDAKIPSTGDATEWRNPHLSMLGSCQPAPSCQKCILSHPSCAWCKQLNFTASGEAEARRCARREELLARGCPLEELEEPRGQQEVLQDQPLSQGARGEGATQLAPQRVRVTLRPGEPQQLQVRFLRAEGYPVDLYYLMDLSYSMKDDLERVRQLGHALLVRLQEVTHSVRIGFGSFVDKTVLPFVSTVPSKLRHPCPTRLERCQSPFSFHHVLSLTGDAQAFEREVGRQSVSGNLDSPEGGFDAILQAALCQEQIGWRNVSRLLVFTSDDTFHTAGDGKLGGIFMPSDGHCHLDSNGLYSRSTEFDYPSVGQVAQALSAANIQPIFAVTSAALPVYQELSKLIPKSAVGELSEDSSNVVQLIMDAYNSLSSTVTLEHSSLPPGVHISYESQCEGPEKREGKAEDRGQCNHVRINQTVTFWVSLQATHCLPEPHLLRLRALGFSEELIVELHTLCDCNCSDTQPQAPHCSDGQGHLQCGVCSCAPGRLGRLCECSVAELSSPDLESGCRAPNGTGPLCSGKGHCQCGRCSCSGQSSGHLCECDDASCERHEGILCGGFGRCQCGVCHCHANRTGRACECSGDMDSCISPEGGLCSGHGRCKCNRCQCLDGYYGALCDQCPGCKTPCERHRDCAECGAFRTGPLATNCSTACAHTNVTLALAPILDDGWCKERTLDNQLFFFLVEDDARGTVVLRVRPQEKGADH
Description: A nickel coated plate (Pierce #15442) was coated with rh integrin α4β7 (R&D Systems #5397-A30) at 800 ng/well and incubated at room temperature with shaking for 1 hr. The solution was then removed by shaking and blocked with assay buffer (50 mM Tris-HCl pH7.6, 150 mM NaCl, 1 mM MnCl₂ or MgCl₂, 0.05% Tween-20 and 0.5% BSA) at 250 ul/well. The plate was then incubated at room temperature for 1 hr. Each well was washed 3 times with wash buffer (50 mM Tris-HCl pH7.6, 100 mM NaCl, 1 mM MnCl₂ or MgCl₂, 0.05% Tween-20). To each well was added 25 ul of a serial dilution (3-fold dilutions in assay buffer) of peptides starting at 20 μM. 25 ul of recombinant human MAdCAM-1 (R&D Systems #6056-MC) was then added to each well at a fixed concentration 20 nM. The final starting peptide concentration was 10 μM, and the final MAdCAM-1 concentration was 10 nM. The plates were then incubated at room temperature for 1 hr to reach binding equilibrium. The wells were then washed three times with wash buffer. 50 ul of mouse anti-human IgG1-HRP (Invitrogen #A10648) diluted in 1:2000 in assay buffer was then added to each well. The wells were incubated at room temperature for 45 min with shaking. The wells were then washed 3 times with wash buffer. 100 ul of TMB were then added to each well and closely observe during development time. The reaction was stopped with 2N H₂SO₄ and absorbance was read at 450 nm.

T1 sequence (P13612 34-977 limits assumed, chain 1 of 2): as the sequence (P13612 34-977 limits assumed, chain 1 of 2) above
T1 sequence (P05556 21-728 limits assumed, chain 2 of 2): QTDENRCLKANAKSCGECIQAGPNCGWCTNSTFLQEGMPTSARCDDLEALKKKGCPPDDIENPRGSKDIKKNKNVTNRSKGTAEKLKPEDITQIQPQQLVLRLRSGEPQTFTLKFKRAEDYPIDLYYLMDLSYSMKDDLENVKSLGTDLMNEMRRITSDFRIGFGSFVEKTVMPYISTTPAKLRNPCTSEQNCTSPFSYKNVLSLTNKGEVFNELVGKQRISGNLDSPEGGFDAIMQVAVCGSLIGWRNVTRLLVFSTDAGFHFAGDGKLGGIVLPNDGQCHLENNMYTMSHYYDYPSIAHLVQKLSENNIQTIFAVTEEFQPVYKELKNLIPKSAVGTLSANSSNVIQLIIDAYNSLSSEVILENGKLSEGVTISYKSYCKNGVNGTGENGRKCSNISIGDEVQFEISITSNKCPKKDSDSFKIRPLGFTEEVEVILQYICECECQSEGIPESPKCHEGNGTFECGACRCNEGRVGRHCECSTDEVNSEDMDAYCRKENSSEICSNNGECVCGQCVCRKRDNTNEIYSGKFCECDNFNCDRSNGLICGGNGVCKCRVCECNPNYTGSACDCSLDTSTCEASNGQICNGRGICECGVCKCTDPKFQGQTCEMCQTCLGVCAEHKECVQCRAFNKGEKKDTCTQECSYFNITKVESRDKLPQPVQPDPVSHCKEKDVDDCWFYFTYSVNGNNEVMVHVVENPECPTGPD

IC50 [1]: 2020 nM
IC50 [2]: 97 nM
Binder: Ac-CRSDTLCGE-NH2 (also: cyclised, mode not given here, also called control peptide) [SEQ ID NO 385]
